These results are taken from patent US20160289285A1 (Molecular Partners, published 2016).

The chains are these.
B1: Protein #24 (designed binder)
chain: MRGSHHHHHHGSDLGKKLLEAARAGQDDEVRILMANGADVNAKDRFGDTPLHLAADIGHLEIVEVLLKAGADVNAKDWFGNTPLHLAASFGHLEIVEVLLKAGADVNAKDDYGNTPLHLAANTGHLEIVEVLLKAGADVNAQDKFGKTAFDISIDNGNEDLAEILQKAA
B2: Protein #35 (designed binder)
chain: MRGSHHHHHHGSDLGKKLLEAARAGQDDEVRILMANGADVNANDFLGLTPLHLAASTGHLEIVEVLLKYGADVNAIDAYGHTPLHLAANNGHLEIVEVLLKYGADVNAIDHFGYTPLHLAAMFGHLEIVEVLLKNGADVNAQDKFGKTAFDISIDNGNEDLAEILQKAA
B3: Protein #33 (designed binder)
chain: MRGSHHHHHHGSDLGKKLLEAARAGQDDEVRILMANGADVNAQDRWGDTPLHLAASAGHLKIVEVLLKYGADVNADDVFGDTPLHLAASLGHLEIVEVLLKYGADVNADDYAGNTPLHLAANTGHLEIVEVLLKHGADVNAQDKFGKTAFDISIDNGNEDLAEILQKAA
B4: Protein #34 (designed binder)
chain: MRGSHHHHHHGSDLGKKLLEAARAGQDDEVRILMANGADVNAQDRWGDTPLHLAASAGHLKIVEVLLKYGADVNADDVFGDTPLHLAASLGHLEIVEVLLKYGADVNADDYAGNTPLHLAANTGHLEIVEVLLKYGADVNAQDKFGKTAFDISIDNGNEDLAEILQKAA
B5: Protein #30 (designed binder)
chain: MRGSHHHHHHGSDLGKKLLEAARAGQDDEVRILMANGADVNTHDNFGDTPLHLAASIGHLEIVEVLLKHGADVNAFDSYGDTPLHLAASSGHLEIVEVLLKYGADVNALDYNGNTPLHLAANSGRLEIVEVLLKHGADVNAQDKFGKTAFDISIDNGNEDLAEILQKAA
B6: Protein #31 (designed binder)
chain: MRGSHHHHHHGSDLGKKLLEAARAGQDDEVRILMANGADVNAVDAWGDTPLHLAASIGHLEIVEVLLKNGADVNAADYYGDTPLHLAASAGHLEIVEVLLKYGADVNAQDDNGNTPLHLAANTGRLEIVEVLLKHGADVNAQDKFGKTAFDISIDNGNEDLAEILQKAA
B7: Protein #32 (designed binder)
chain: MRGSHHHHHHGSDLGKKLLEAARAGQDDEVRILMANGADVNAIDTWGNTPLHLAADYGHLEIVEVLLKNGADVNALDWFGDTPLHLAASLGHLEIVEVLLKNGADVNAVDTYGNTPLHLAANTGRLEIVEVLLKYGADVNAQDKFGKTAFDISIDNGNEDLAEILQKAA
B8: Protein #25 (designed binder)
chain: MRGSHHHHHHGSDLGKKLLEAARAGQDDEVRILMANGADVNAKDRYGDTPLHLAADIGHLEIVEVLLKAGADVNAEDYFGNTPLHLAASYGHLEIVEVLLKAGADVNAKDDYGNTPLHLAANTGHLEIVEVLLKAGADVNAQDKSGKTPADLAADAGHEDIAEVLQKAA
B9: Protein #27 (designed binder)
chain: MRGSHHHHHHGSDLGKKLLEAARAGQDDEVRILLKAGADVNAKDRYGDTPLHLAADAGHLKIVEVLLKAGADVNAEDYFGNTPLHLAASAGHLEIVEVLLKAGADVNAKDDAGNTPLHLAANTGHLKIVEVLLKAGADVNAQDKSGKTPADLAADAGHEDIAEVLQKAA
B10: Protein #36 (designed binder)
chain: MRGSHHHHHHGSDLGKKLLEAARAGQDDEVRILMANGADVNANDSSGLTPLHLAAFYGHLEIVEVLLKYGADVNADDDWGHTPLHLAAHYGHLEIVEVLLKHGADVNAIDTRGLTPLHLAAIAGHLEIVEVLLKYGADVNAQDKFGKTAFDISIDNGNEDLAEILQKAA
B11: Protein #51 (designed binder)
chain: MRGSHHHHHHGSDLGKKLLEAARAGQDDEVRILMANGADVNAKDYFSHTPLHLAARNGHLKIVEVLLKAGADVNAKDFAGKTPLHLAANDGHLEIVEVLLKHGADVNAQDIFGKTPADIAADAGHEDIAEVLQKAA
B12: Protein #46 (designed binder)
chain: MRGSHHHHHHGSDLGKKLLEAARAGQDDEVRILLAAGADVNAKDYFSHTPLHLAARNGHLKIVEVLLKAGADVNAKDFAGKTPLHLAANDGHLEIVEVLLKHGADVNAQDIFGKTPADIAADAGHEDIAEVLQKAA
B13: Protein #43 (designed binder)
chain: MRGSHHHHHHGSDLGKKLLEAARAGQDDEVRILMANGADVNAADYFSHTPLHLAARDGHLKIVEVLLKYGADVNASDFAGKTPLHLAANDGHLEIVEVLLKHGADVNAQDIFGKTAFDISIDNGNEDLAEILQKAA
B14: Protein #44 (designed binder)
chain: MRGSHHHHHHGSDLDKKLLEAARAGQDDEVRILMANGADVNAKDYFSHTPLHLAARNGHLEIVEVLLKAGADVNAKDFAGKTPLHLAANDGHLEIVEVLLKHGADVNAQDIFGKTPADIAADAGHEDIAEVLQKAA
B15: Protein #50 (designed binder)
chain: MRGSHHHHHHGSDLGKKLLEAARAGQDDEVRELLKAGADVNAKDYFSHTPLHLAARNGHLKIVEVLLKAGADVNAKDFAGKTPLHLAANEGHLEIVEVLLKAGADVNAQDIFGKTPADIAADAGHEDIAEVLQKAA
B16: Protein #47 (designed binder)
chain: MRGSHHHHHHGSDLDKKLLEAARAGQDDEVRILMANGADVNAKDYFSHTPLHLAARNGHLKIVEVLLKAGADVNAKDFAGKTPLHLAANDGHLEIVEVLLKHGADVNAQDIFGKTPADIAADAGHEDIAEVLQKAA
B17: Protein #49 (designed binder)
chain: MRGSHHHHHHGSDLGKKLLEAARAGQDDEVRELLKAGADVNAKDYFSHTPLHLAARNGHLKIVEVLLKAGADVNAKDFAGKTPLHLAANDGHLEIVEVLLKAGADVNAQDIFGKTPADIAADAGHEDIAEVLQKAA
B18: Protein #48 (designed binder)
chain: MRGSHHHHHHGSDLGKKLLEAARAGQDDEVRILLKAGADVNAKDYFSHTPLHLAARNGHLKIVEVLLKAGADVNAKDFAGKTPLHLAANDGHLEIVEVLLKAGADVNAQDIFGKTPADIAADAGHEDIAEVLQKAA
B19: Protein #45 (designed binder)
chain: MRGSHHHHHHGSDLGKKLLEAARAGQDDEVRILMANGADVNAKDYFSHTPLHLAARNGHLEIVEVLLKAGADVNAKDFAGKTPLHLAANDGHLEIVEVLLKHGADVNAQDIFGKTPADIAADAGHEDIAEVLQKAA
B20: Protein #52 (designed binder)
chain: MRGSHHHHHHGSDLDKKLLEAARAGQDDEVRILMANGADVNAKDERGTTPLHLAAVYGHLEIVEVLLKAGADVNAKNETGYTPLHLADSSGHLEIVEVLLKHSADVNAQDKSGKTPADLAADAGHEDIAEVLQKAA
B21: Protein #56 (designed binder)
chain: MRGSHHHHHHGSDLDKKLLEAARAGQDDEVRILMANGADVNAKDERGTTPLHLAAVYGHLEIVEVLLKAGADVNAKNETGYTPLHLADSSGHLEIVEVLLKASADVNAQDKSGKTPADLAADAGHEDIAEVLQKAA
B22: Protein #55 (designed binder)
chain: MRGSHHHHHHGSDLDKKLLEAARAGQDDEVRILMANGADVNAKDERGTTPLHLAAVYGHLEIVEVLLKAGADVNAKNETGYTPLHLADSSGHLEIVEVLLKHGADVNAQDKSGKTPADLAADAGHEDIAEVLQKAA
B23: Protein #54 (designed binder)
chain: MRGSHHHHHHGSDLDKKLLEAARAGQDDEVRILMANGADVNAKDERGTTPLHLAAVYGHLEIVEVLLKAGADVNAKNETGYTPLHLADSSGHLEIVEVLLKAGADVNAQDKSGKTPADLAADAGHEDIAEVLQKAA
B24: Protein #40 (designed binder)
chain: MRGSHHHHHHGSDLGKKLLEAARAGQDDEVRILMASGADVNAADYFSHTPLHLAARDGHLKIVEVLLKYGADVDASDFAGKTPLHLAANDGHLEIVEVLLKHDADVNAQDKFGKTAFDISIDNGNEDLAEILQKAA
B25: Protein #41 (designed binder)
chain: MRGSHHHHHHGSDLGKELLEAARAGQDDEVRILMANGADVNAADYFGHTPLHLAARNGHLKIVEVLLKYGADVNASDFAGKTPLHLAANDGHLEIVEVLLKHGADVNAQDIFGKTAFEISIDNGNEDLAEILQKAA
B26: Protein #42 (designed binder)
chain: MRGSHHHHHHGSDLGKKLLEAARAGQDDEVRILMANGADVNAADYFGHTPLHLAARDGHLKIVEVLLKYGADVNASDFAGKTPLHLAANDGHLEIVEVLLKHGADVNAQDKFGKTAFDISIDNGNEDLAEILQKAA
B27: Protein #53 (designed binder)
chain: MRGSHHHHHHGSDLGKKLLEAARAGQDDEVRFLMANGADVNAADERGTTPLHLAAVYGHLEIVEVLLKNGADVNAQNETGYTPLHLADSSGHLEIVEVLLKHSADVNAQDKFGKTAFDISIDNGNEDLAEILQKAA
B28: Protein #57 (designed binder)
chain: MRGSHHHHHHGSDLGKKLLEAARAGQDDEVRILMANGADVNAKDYFSHTPLHLAARNGHLKIVEVLLKAGADVNAKDFAGKTPLHLAANDGHLEIVEVLLKHGADVNAQDIFGKTPADIAADAGHEDIAEVLQKLGSPTPTPTTPTPTPTTPTPTPTGSRSDLDITGLKLN

The target of one assay is T1, human HGF (human, UniProt P14210 32-728).
T1 construct: also called hepatocyte growth factor
T1 sequence (P14210 32-728 limits assumed): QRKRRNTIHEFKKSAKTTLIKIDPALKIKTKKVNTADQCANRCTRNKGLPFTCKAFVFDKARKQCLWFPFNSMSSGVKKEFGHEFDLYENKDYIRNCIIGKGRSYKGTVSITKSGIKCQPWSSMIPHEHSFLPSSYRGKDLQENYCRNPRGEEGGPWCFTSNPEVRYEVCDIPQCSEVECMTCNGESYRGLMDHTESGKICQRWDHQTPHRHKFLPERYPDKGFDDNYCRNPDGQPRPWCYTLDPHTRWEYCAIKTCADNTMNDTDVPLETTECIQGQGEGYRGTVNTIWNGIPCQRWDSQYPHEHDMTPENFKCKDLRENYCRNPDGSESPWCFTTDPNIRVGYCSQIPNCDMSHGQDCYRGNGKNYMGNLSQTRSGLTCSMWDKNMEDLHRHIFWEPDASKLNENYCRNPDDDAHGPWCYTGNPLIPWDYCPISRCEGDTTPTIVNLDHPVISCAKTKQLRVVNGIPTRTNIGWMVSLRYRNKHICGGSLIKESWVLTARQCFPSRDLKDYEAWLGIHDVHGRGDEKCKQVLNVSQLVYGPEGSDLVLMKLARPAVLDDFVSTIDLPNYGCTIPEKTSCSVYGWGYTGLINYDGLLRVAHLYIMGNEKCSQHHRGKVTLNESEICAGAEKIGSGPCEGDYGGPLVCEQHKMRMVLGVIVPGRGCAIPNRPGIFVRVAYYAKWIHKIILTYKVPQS
Nature of the assay: SPR (ProteOn). How it is done:
(§1) SPR was measured using a ProteOn instrument (BioRad) and measurement was performed according standard procedures known to the person skilled in the art.
B1: the dissociation constant Kd stood at 0.163 nM.
On to B2, for which the binding result is “binds”.
For the molecule B3, the binding result was “binds”.
On the same count and under the same terms, to B4 belongs “binds”.
On the same count and under the same terms, the entry for B5 is “binds”.
Same read-out and setting: the entry for B6 is “binds”; for B7 it is “binds”.
As for B8, the dissociation constant (Kd) came to 0.066 nM.
B9 displayed a Kd of 0.129 nM.
B10: the binding result is given as “binds”.

The target of the next assay is T2, human serum albumin (human, UniProt P02768 25-609).
T2 construct: For SEC-MALS purified from CSL Behring 20% solution; also called HSA; SA (human)
T2 sequence (P02768 25-609 limits assumed): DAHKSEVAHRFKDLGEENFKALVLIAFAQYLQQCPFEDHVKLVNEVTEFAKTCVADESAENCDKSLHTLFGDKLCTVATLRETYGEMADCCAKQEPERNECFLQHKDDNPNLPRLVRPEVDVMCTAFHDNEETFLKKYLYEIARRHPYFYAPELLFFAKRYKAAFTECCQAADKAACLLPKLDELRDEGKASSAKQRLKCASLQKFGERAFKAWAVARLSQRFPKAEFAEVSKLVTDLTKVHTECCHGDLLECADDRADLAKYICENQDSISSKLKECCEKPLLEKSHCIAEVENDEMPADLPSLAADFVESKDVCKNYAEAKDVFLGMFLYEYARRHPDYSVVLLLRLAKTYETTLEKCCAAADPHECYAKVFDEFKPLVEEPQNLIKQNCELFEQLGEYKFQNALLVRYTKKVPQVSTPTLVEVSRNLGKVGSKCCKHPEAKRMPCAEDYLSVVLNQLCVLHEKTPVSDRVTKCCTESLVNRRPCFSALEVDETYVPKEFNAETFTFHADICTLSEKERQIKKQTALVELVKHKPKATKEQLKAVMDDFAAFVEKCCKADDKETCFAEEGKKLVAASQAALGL
Nature of the assay: SPR (ProteOn). On the procedure: as §1
B11: the Kd stood at 14 nM.
B12: binding was characterised by a dissociation constant (Kd) of 22 nM.
Take B13: the binding result is “binds”.
Take B14: the equilibrium dissociation constant (Kd) turned out to be 26 nM.
Still for that read-out and setting: the figure for B15 is 27 nM; for B16 it is 27 nM.
Molecule B17 registered a dissociation constant (Kd) of 15 nM. Compared with the last molecule, the Kd is about 1.8-fold lower.
The same measure, in the same setting: to B18 belongs 20 nM; to B19, 13 nM; to B20, 6 nM.
As for B21, the binding result is “binds”.
For B22, binding was characterised by a dissociation constant (Kd) of 15 nM. That is a double-digit nanomolar value.
On to B23, for which binding was characterised by a dissociation constant (Kd) of 11 nM.
For the molecule B24, the binding result is on record as “binds”.
The same measure, in the same setting: the entry for B25 is “binds”; for B26 it is “binds”; for B27 it is “binds”.
B28: the binding result is given as “binds”.
